{
  "source": "patent US20180155451A1",
  "about": "(published 2018)",
  "binders": {"B1": {"name": "GpH7-A5/GpH7-B3 variant G236_02A/GpL16-k0 (antibody, human IgG1, kappa)", "heavy 1": "not shown", "heavy 2": "not shown", "light": "DIVMTQSPLSLPVTPGEPASISCQASESLVHSNRNTYLHWYLQKPGQSPQLLIYKVSNRFSGVPDRFSGSGSGTDFTLKISRVEAEDVGVYYCSQNTHVPPTFGQGTKVEIERTVAAPSVFIFPPSDEQLKSGTASVVCLLNNFYPREAKVQWKVDNALQSGNSQESVTEQDSKDSTYSLSSTLTLSKADYEKHKVYACEVTHQGLSSPVTKSFNRGEC", "notes": "Heterodimerized IgG1, mutation in the GpH7-B3 chain only; also called He Ab"}, "B2": {"name": "GpH7-A5/GpH7-B3 variant L234_01G/GpL16-k0 (antibody, human IgG1, kappa)", "heavy 1": "not shown", "heavy 2": "not shown", "light": "DIVMTQSPLSLPVTPGEPASISCQASESLVHSNRNTYLHWYLQKPGQSPQLLIYKVSNRFSGVPDRFSGSGSGTDFTLKISRVEAEDVGVYYCSQNTHVPPTFGQGTKVEIERTVAAPSVFIFPPSDEQLKSGTASVVCLLNNFYPREAKVQWKVDNALQSGNSQESVTEQDSKDSTYSLSSTLTLSKADYEKHKVYACEVTHQGLSSPVTKSFNRGEC", "notes": "as for B1"}, "B3": {"name": "GpH7-A5/GpH7-B3 variant D265_02A/GpL16-k0 (antibody, human IgG1, kappa)", "heavy 1": "not shown", "heavy 2": "not shown", "light": "DIVMTQSPLSLPVTPGEPASISCQASESLVHSNRNTYLHWYLQKPGQSPQLLIYKVSNRFSGVPDRFSGSGSGTDFTLKISRVEAEDVGVYYCSQNTHVPPTFGQGTKVEIERTVAAPSVFIFPPSDEQLKSGTASVVCLLNNFYPREAKVQWKVDNALQSGNSQESVTEQDSKDSTYSLSSTLTLSKADYEKHKVYACEVTHQGLSSPVTKSFNRGEC", "notes": "as for B1"}, "B4": {"name": "GpH7-A5/GpH7-B3 variant G236_05P/GpL16-k0 (antibody, human IgG1, kappa)", "heavy 1": "not shown", "heavy 2": "not shown", "light": "DIVMTQSPLSLPVTPGEPASISCQASESLVHSNRNTYLHWYLQKPGQSPQLLIYKVSNRFSGVPDRFSGSGSGTDFTLKISRVEAEDVGVYYCSQNTHVPPTFGQGTKVEIERTVAAPSVFIFPPSDEQLKSGTASVVCLLNNFYPREAKVQWKVDNALQSGNSQESVTEQDSKDSTYSLSSTLTLSKADYEKHKVYACEVTHQGLSSPVTKSFNRGEC", "notes": "as for B1"}, "B5": {"name": "GpH7-A5/GpH7-B3 variant G236_03V/GpL16-k0 (antibody, human IgG1, kappa)", "heavy 1": "not shown", "heavy 2": "not shown", "light": "DIVMTQSPLSLPVTPGEPASISCQASESLVHSNRNTYLHWYLQKPGQSPQLLIYKVSNRFSGVPDRFSGSGSGTDFTLKISRVEAEDVGVYYCSQNTHVPPTFGQGTKVEIERTVAAPSVFIFPPSDEQLKSGTASVVCLLNNFYPREAKVQWKVDNALQSGNSQESVTEQDSKDSTYSLSSTLTLSKADYEKHKVYACEVTHQGLSSPVTKSFNRGEC", "notes": "as for B1"}, "B6": {"name": "GpH7-A5/GpH7-B3 variant D265_03V/GpL16-k0 (antibody, human IgG1, kappa)", "heavy 1": "not shown", "heavy 2": "not shown", "light": "DIVMTQSPLSLPVTPGEPASISCQASESLVHSNRNTYLHWYLQKPGQSPQLLIYKVSNRFSGVPDRFSGSGSGTDFTLKISRVEAEDVGVYYCSQNTHVPPTFGQGTKVEIERTVAAPSVFIFPPSDEQLKSGTASVVCLLNNFYPREAKVQWKVDNALQSGNSQESVTEQDSKDSTYSLSSTLTLSKADYEKHKVYACEVTHQGLSSPVTKSFNRGEC", "notes": "as for B1"}, "B7": {"name": "GpH7-A5/GpH7-B3 variant G236_12R/GpL16-k0 (antibody, human IgG1, kappa)", "heavy 1": "not shown", "heavy 2": "not shown", "light": "DIVMTQSPLSLPVTPGEPASISCQASESLVHSNRNTYLHWYLQKPGQSPQLLIYKVSNRFSGVPDRFSGSGSGTDFTLKISRVEAEDVGVYYCSQNTHVPPTFGQGTKVEIERTVAAPSVFIFPPSDEQLKSGTASVVCLLNNFYPREAKVQWKVDNALQSGNSQESVTEQDSKDSTYSLSSTLTLSKADYEKHKVYACEVTHQGLSSPVTKSFNRGEC", "notes": "as for B1"}, "B8": {"name": "GpH7-A5/GpH7-B3 variant G236_06M/GpL16-k0 (antibody, human IgG1, kappa)", "heavy 1": "not shown", "heavy 2": "not shown", "light": "DIVMTQSPLSLPVTPGEPASISCQASESLVHSNRNTYLHWYLQKPGQSPQLLIYKVSNRFSGVPDRFSGSGSGTDFTLKISRVEAEDVGVYYCSQNTHVPPTFGQGTKVEIERTVAAPSVFIFPPSDEQLKSGTASVVCLLNNFYPREAKVQWKVDNALQSGNSQESVTEQDSKDSTYSLSSTLTLSKADYEKHKVYACEVTHQGLSSPVTKSFNRGEC", "notes": "as for B1"}, "B9": {"name": "GpH7-A5/GpH7-B3 variant G236_08L/GpL16-k0 (antibody, human IgG1, kappa)", "heavy 1": "not shown", "heavy 2": "not shown", "light": "DIVMTQSPLSLPVTPGEPASISCQASESLVHSNRNTYLHWYLQKPGQSPQLLIYKVSNRFSGVPDRFSGSGSGTDFTLKISRVEAEDVGVYYCSQNTHVPPTFGQGTKVEIERTVAAPSVFIFPPSDEQLKSGTASVVCLLNNFYPREAKVQWKVDNALQSGNSQESVTEQDSKDSTYSLSSTLTLSKADYEKHKVYACEVTHQGLSSPVTKSFNRGEC", "notes": "as for B1"}},
  "key": {"FcγRIIa H [1]": {"biological_target": "T1, FcγRIIa H (human, UniProt P12318 34-217)", "T1 construct": "extracellular domain; also called FcgRIIa H; FcγRIIa type H; not shown: His tag attached to the C terminus", "T1 sequence (looked up)": "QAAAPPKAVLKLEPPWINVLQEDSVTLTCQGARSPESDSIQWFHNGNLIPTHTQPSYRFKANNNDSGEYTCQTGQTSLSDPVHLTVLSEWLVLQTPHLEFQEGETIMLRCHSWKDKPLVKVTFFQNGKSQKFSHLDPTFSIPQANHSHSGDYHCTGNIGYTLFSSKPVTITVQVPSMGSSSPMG", "assay": "ratio of He/Con_2aH to He/Con_2b (relative SPR binding to FcγRIIa H over FcγRIIb)"}, "FcγRIIb": {"biological_target": "T2, FcγRIIb (human, UniProt P31994 43-217)", "T2 construct": "extracellular domain; also called FcgRIIb; 2b; not shown: His tag attached to the C terminus", "T2 sequence (looked up)": "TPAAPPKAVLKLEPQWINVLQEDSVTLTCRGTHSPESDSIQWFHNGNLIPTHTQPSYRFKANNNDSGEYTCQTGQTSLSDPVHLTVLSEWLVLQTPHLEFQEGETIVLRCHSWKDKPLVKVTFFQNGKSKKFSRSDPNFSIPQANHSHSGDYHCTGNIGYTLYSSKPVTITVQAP", "assay": "SPR (Biacore), antibody captured, FcγR as analyte; binding relative to GpH7-A5/GpH7-B3/GpL16-k0 = 100"}, "FcγRIIa H [2]": {"biological_target": "T1, FcγRIIa H", "assay": "SPR (Biacore), antibody captured, FcγR as analyte; binding relative to GpH7-A5/GpH7-B3/GpL16-k0 = 100"}},
  "data": [
    {"binder": "B1", "values": [
      {"measurement": "He_2aH/2b (IIaH/IIb)", "setting": "FcγRIIa H [1]", "result": 1.44},
      {"measurement": "He/Con_2b", "setting": "FcγRIIb", "result": 96.5, "unit": "control = 100"},
      {"measurement": "He/Con_2aH", "setting": "FcγRIIa H [2]", "result": 139, "unit": "control = 100"}
    ]},
    {"binder": "B2", "values": [
      {"measurement": "He_2aH/2b (IIaH/IIb)", "setting": "FcγRIIa H [1]", "result": 1.49},
      {"measurement": "He/Con_2b", "setting": "FcγRIIb", "result": 50.7, "unit": "control = 100"},
      {"measurement": "He/Con_2aH", "setting": "FcγRIIa H [2]", "result": 75.6, "unit": "control = 100"}
    ]},
    {"binder": "B3", "values": [
      {"measurement": "He_2aH/2b (IIaH/IIb)", "setting": "FcγRIIa H [1]", "result": 1.58},
      {"measurement": "He/Con_2b", "setting": "FcγRIIb", "result": 19.9, "unit": "control = 100"},
      {"measurement": "He/Con_2aH", "setting": "FcγRIIa H [2]", "result": 31.3, "unit": "control = 100"}
    ]},
    {"binder": "B4", "values": [
      {"measurement": "He_2aH/2b (IIaH/IIb)", "setting": "FcγRIIa H [1]", "result": 3.34},
      {"measurement": "He/Con_2b", "setting": "FcγRIIb", "result": 19, "unit": "control = 100"},
      {"measurement": "He/Con_2aH", "setting": "FcγRIIa H [2]", "result": 63.5, "unit": "control = 100"}
    ]},
    {"binder": "B5", "values": [
      {"measurement": "He_2aH/2b (IIaH/IIb)", "setting": "FcγRIIa H [1]", "result": 3.39},
      {"measurement": "He/Con_2b", "setting": "FcγRIIb", "result": 35.3, "unit": "control = 100"},
      {"measurement": "He/Con_2aH", "setting": "FcγRIIa H [2]", "result": 119, "unit": "control = 100"}
    ]},
    {"binder": "B6", "values": [
      {"measurement": "He_2aH/2b (IIaH/IIb)", "setting": "FcγRIIa H [1]", "result": 1.42},
      {"measurement": "He/Con_2b", "setting": "FcγRIIb", "result": 3.2, "unit": "control = 100"},
      {"measurement": "He/Con_2aH", "setting": "FcγRIIa H [2]", "result": 4.6, "unit": "control = 100"}
    ]},
    {"binder": "B7", "values": [
      {"measurement": "He_2aH/2b (IIaH/IIb)", "setting": "FcγRIIa H [1]", "result": 5.04},
      {"measurement": "He/Con_2b", "setting": "FcγRIIb", "result": 6.8, "unit": "control = 100"},
      {"measurement": "He/Con_2aH", "setting": "FcγRIIa H [2]", "result": 34.2, "unit": "control = 100"}
    ]},
    {"binder": "B8", "values": [
      {"measurement": "He_2aH/2b (IIaH/IIb)", "setting": "FcγRIIa H [1]", "result": 1.88},
      {"measurement": "He/Con_2b", "setting": "FcγRIIb", "result": 45.5, "unit": "control = 100"},
      {"measurement": "He/Con_2aH", "setting": "FcγRIIa H [2]", "result": 85.7, "unit": "control = 100"}
    ]},
    {"binder": "B9", "values": [
      {"measurement": "He_2aH/2b (IIaH/IIb)", "setting": "FcγRIIa H [1]", "result": 2.83},
      {"measurement": "He/Con_2b", "setting": "FcγRIIb", "result": 26.8, "unit": "control = 100"},
      {"measurement": "He/Con_2aH", "setting": "FcγRIIa H [2]", "result": 75.8, "unit": "control = 100"}
    ]}
  ]
}
